Measurements reported in patent US20230192799A1 (BIOMARIN PHARMACEUTICAL, published 2023).
Bridge positions count the residues as written; N and C are the ends. Ends that are not written are not given here.

target: natriuretic peptide receptor-B (NPR-B) on the cells of the cGMP stimulation assay of Example 2; assay: cell-based or functional assay

| Binder | EC50, T0 (cGMP stimulation assay) [nM] |
| --- | --- |
| Ac-PGQEHPNARRYRGANRRGLSRGCFGLKLDRIGSMSGLGC-OH (disulfide 23-39 (inferred)) [CNP-6] | 0.4 |
| Ac-PGQEHPQARRYRGAQRRGLSRGCFGLKLDRIGSMSGLGC-NH2 (disulfide 23-39 (inferred)) [CNP-9] | 0.9 |
| Ac-PGQEHPNARRYRGANRRGLSRGCFGLKLDRIGSMSGLGC-NH2 (disulfide 23-39 (inferred)) [CNP-7] | 2.1 |
| Ac-PGQEHPNARKYKGANKKGLSKGCFGLKLDRIGSMSGLGC-NH2 (disulfide 23-39 (inferred)) [CNP-5] | 3 |
| PGQEHPNARKYKGANKKGLSKGCFGLKLDRIGSMSGLGC (disulfide 23-39 (inferred)) [Pro-Gly CNP-37] | 1.7 |
| Ac-PGQEHPQARRYRGAQRRGLSRGCFGLKLDRIGSMSGLGC-OH (disulfide 23-39 (inferred)) [CNP-8] | 0.2 |
